CN114349855A (BAISIS MEDICAL DIAGNOSIS SCIENCE AND TECH BEIJING LIMITED …, dated 2022)

B1: 抗体 克隆号9A5D9 22G3 (antibody, V domains shown)
VH: EVQLVESGGGLVKPGGSLRLSCAASGFTFSSYSMNWVRQAPGKGLEWVSSISRSSSYIYYADSVMGRFTISRDNAKNSLYLQMNSLRADDTAVYYCARDRGSGNYYVDGLDIWGQGTMVTVSS
VL: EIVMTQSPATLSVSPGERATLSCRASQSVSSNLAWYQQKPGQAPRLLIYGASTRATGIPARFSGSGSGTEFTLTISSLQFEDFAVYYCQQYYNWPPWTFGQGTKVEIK
B2: 抗体 克隆号7D7G3D4 (antibody, V domains shown)
VH: EVQLVESGGGLVQPGGSLRLSCAASGLTVSSNHMSWVRQAPGKGLEWVSIIYSGGSTYYADSVKGRFTISRDNSKNTLYLQMDSLRAEDTTVYYCARAQGGWELPGAGYYYFNGMDFWGQGTTVTVSS
VL: DIQMTQSPSSLSASVGDRVTITCRASQSISTYLNWYQQKPGKAPKLLIYAASNLQSGVPSRFSGSASGTDFTLTISSLQPEDFATYFCQQSYSTSFTFGPGTKVDIK
B3: 抗体 克隆号9A5F6 23F1 (antibody, V domains shown)
VH: QVQLVESGGGVVQPGRSLRLSCAASGFTFSSYAMYWVRQAPGKGLECVAGISYDGSNKYYADSVKGRFTISRENSKNTLYLQMNSLISEDTAVYYCARAEWDYWGQGTLVTVSS
VL: SYELTQPSSVSVSPGQTARITCSGDVLAKKYARWFQQKPGQAPVLVIYKDSERPSGIPERFSGSSSGTTVTLTISGAQVEDEADYYCYSAADNNLGVFGGGTKL

The binders below were run against T1, 新型冠状病毒野生型Spike蛋白 (新型冠状病毒 (SARS-CoV-2) 野生型, UniProt P0DTC2 16-1213) (assay: ELISA, S protein coated at 2 μg/mL).
T1 construct: also called 野生型S蛋白

Row | Binder | binding result
1 | B1 | no binding (tested: 1 μg/mL)
2 | B2 | no binding (tested: 1 μg/mL)
3 | B3 | no binding (tested: 1 μg/mL)
